This data set is described as follows: soluble on expression in E. coli; label from the status in PepcDB or PDB records.
Regarding “MLSFINKPRMESKMTIPELRELYQTQQLVEAIIEPSFQEGEWIVEFRHQMGGFVLLTDENGEECRYIDLDSASQSAMAVGFRQVRIENQ”, the “soluble on expression in E. coli” value is given as “not soluble”.

On to “MLSFRNWWAREDSNPRPPGYEPGALPTELRAHTAIRLYSNKTPLSRSVISMKKDPIKEMLVKYPRILVIKAALKILKDGNKIDRERIEKTIVKIMTKKEGLEHHHHHH”, for which the “soluble on expression in E. coli” value is on record as “soluble”.

With “MLSGYIAGAIMKQEVILVLDCGATNVRAIAVNRQGKIVARASTPNASDIAMENNTWHQWSLDAILQRFADCCRQINSELTECHIRGIAVTTFGVDGALVDKQGNLLYPIISWKCPRTAAVMDNIERLISAQRLQAISGVGAFSFNTLYKLVWLKENHPQLLERAHAWLFISSLINHRLTGEFTTDITMAGTSQMLDIQQRDFSPQILQATGIPRRLFPRLVEAGEQIGTLQNSAAAMLGLPVGIPVISAGHDTQFALFGAGAEQNEPVLSSGTWEILMVRSAQVDTSLLSQYAGSTCELDSQAGLYNPGMQWLASGVLEWVRKLFWTAETPWQMLIEEARLIAPGADGVKMQCDLLSCQNAGWQGVTLNTTRGHFYRAALEGLTAQLQRNLQMLEKIGHFKASELLLVGGGSRNTLWNQIKANMLDIPLKVLDDAETTVAGAALFGWYGVGEFNSPEEARAQIHYQFRYFYPQTEPEFIEEV”, the “soluble on expression in E. coli” value is given as “not soluble”.

In the case of “MLSKITQELLKMNNVLLMRPDDSEFMIPDDWSGLNAKGITYEQDNRVTESFLPFKSFYCSPVCTTVELISQNNCFAMGIRYLLEKKRDLRLNHFKAFSHKCETKPDVLIMTGCTVADTYSIFSRIVEENIMKTMTPIVIITGHHSEDLCSLASKLGGVKIISPTEKIAKIENAINDAFNSKPKKIRFLTDILSPQQIETMKMVAQGRSVNEISAAMNISIKTVYAHKVRAINKLGIKKKVYEALFYKALIQFN”, the “soluble on expression in E. coli” value is on record as “not soluble”.

“MLSPLAKANLCLNLFGFFKVPLIWACRPKILSLNDQAVEVRIPLKRRNKNHLNSMYFGVLAVGADVAGGYMAMHKANQRGKSVSLAFKSVRGEFHKRPEAAVHFHCVEGEKIDRMLDETARTGERVNQEVHIIATCPTLHGDEPMAEFWLTLSLKIVKLEHHHHHH”: the “soluble on expression in E. coli” value was “soluble”.

On to “MLSVIGIGPGSQAMMTMEAIEALQAAEIVVGYKTYTHLVKAFTGDKQVIKTGMCREIERCQAAIELAQAGHNVALISSGDAGIYGMAGLVLELVSKQKLDVEVRLIPGMTASIAAASLLGAPLMHDFCHISLSDLLTPWPVIEKRIVAAGEADFVICFYNPRSRGREGHLARAFDLLAASKSAQTPVGVVKSAGRKKEEKWLTTLGDMDFEPVDMTSLVIVGNKTTYVQDGLMITPRGYTL”, for which the “soluble on expression in E. coli” value is on record as “not soluble”.

For the sequence “MLTGLFFGSFNPMHIGHLALANYLTEYTPIGQLWFVPSPLNPLKNTQELLPYDLRCELIEQAIRKDIRFQVLRIEELLPSPHYTIRTLRALSMLYPHHRFALLIGADNWQSFDRWKDHHRLMAKYELIIYPRFGYEVDDTTLPTGCRYIHDAPRIEISSTQIRTSILEGKDLRYWLPLPESQDVIASALQSCLSPKR”, the “soluble on expression in E. coli” value was “not soluble”.

For “MLTIGLYNTYDTKKLHEAHIRAIARAAPVAYAYEFHLALIGFPFDSDDPKEVAERVASTTTIGEGGKYLLELAKSNKFHLLDFPKRGFPPQFGEVIATTSKPSKEKVIGSREVAEMALRGKSLMLIIGLGRHGLPKEVFEISKYHLDITDGREISLETCTAIGIIPARIKTLMEALKWK”, the “soluble on expression in E. coli” value was “not soluble”.

As to “MLTKGWDTISIVRQDSVNSDLAASWNSLDHEFSYTSDEGYACHGVFDCWSVINGGGGRLLRLRMPIRSGFFEASGTSRSLAGAVAIIEVTLSLLPQGNGQVQLKSAFLHKAGATQPLQGDEGGWLRGITLQDPDGSLGPFASVVLDCICNYLVEHPLQFTHTFATINFSKATAPEWARPRKCTYAYLDSGFLAIMAVCTERDISGLPLDIDVSGISQGGQSSYVLSPRMVLEHLVLPGLLQLYQGATAQDYRLDNTQMVNIPTLRMKAIKSGAIWYTPVVFAGCNPARMLGDFITVDYKGDCDLHAGIDMKWNGWLRMKLVLDGNTINFVKQSSDFRKEVHIPWYLAWLSPIVSLITHIVAAVISDDLISAIAARGGSVKADTIDCVSWSNDTHTASSSYLAEALVINYV”, the “soluble on expression in E. coli” value is reported as “soluble”.

In the case of “MLTLIQGKKIVNHLRSRLAFEYNGQLIKILSKNIVAVGSLRREEKMLNDVDLLIIVPEKKLLKHVLPNIRIKGLSFSVKVCGERKCVLFIEWEKKTYQLDLFTALAEEKPYAIFHFTGPVSYLIRIRAALKKKNYKLNQYGLFKNQTLVPLKITTEKELIKELGFTYRIPKKRL”, the “soluble on expression in E. coli” value was “soluble”.

For the origin of these results see the DeepSol protein solubility set.
